The supplement of paper PMC10899765
± gives the standard deviation of the averaged measurements.

How the values were obtained:
Conditions in all cases: 20 nM; 72 h
MCF10A [1] = assay: percent viability (nuclei count relative to siNT); higher = more viable cells
Procedure: (§1)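 After 72 h, cells were fixed and stained with Hoechst and anti-fibrillarin, and nucleoli per nucleus were counted with CellProfiler. Values are plate-adjusted percent effect for the one-nucleolus and 5+ nucleoli phenotypes, normalised to siNT (0%) and to the positive controls siNOL11 or siKIF11 (100%), as the mean of biological triplicates. Percent viability is the nuclei count relative to siNT.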

MCF10A [2] = assay: 5+ nucleoli phenotype percent effect (relative to siNT 0% and siKIF11 100%); higher = more cells with five or more nucleoli
Procedure: as §1

MCF10A [3] = assay: one-nucleolus phenotype percent effect (relative to siNT 0% and siNOL11 100%); higher = more cells with one nucleolus (ribosome biogenesis inhibition)
Procedure: as §1

Row | Sequence | percent viability (MCF10A [1]) | 5+ nucleoli phenotype percent effect (MCF10A [2]) | one-nucleolus phenotype percent effect (MCF10A [3])
1 | AUGGAGAAGGCUUCUGA [hsa-miR-4531] | 32.2% | -33.8% | 56.1%
2 | AUGGAGAUAGAUAUAGAAAU [hsa-miR-620] | 62.9% | -31.1% | 24%
3 | AUGGAGCUGGAACCAGAUCAGGC [hsa-miR-6874-5p] | 30.7% | -35.8% | 41.9%
4 | AUGGAUAAGGCUUUGGCUU [hsa-miR-1261] | 50.3% | -12.9% | 24.4%
5 | AUGGCAUCGUCCCCUGGUGGCU [hsa-miR-4642] | 31.3% | -4.74% | 16.6%
6 | AUGGCCAAAACUGCAGUUAUUUU [hsa-miR-548s] | 37.4% | 14.5% | 8.89%
7 | AUGGCCAGAGCUCACACAGAGG [hsa-miR-4435] | 68% | 40.9% | -11.4%
8 | AUGGGGACAGGGAUCAGCAUGGC [hsa-miR-6810-5p] | 25.9% | -23.9% | 45.5%
9 | AUGGGGUGAGAUGGGGAGGAGCAGC [hsa-miR-6812-5p] | 23.7% | -19.9% | 12.2%
10 | AUGGGUGAAUUUGUAGAAGGAU [hsa-miR-1262] | 27.2% | -20.4% | 17.3%
11 | AUGGGUGAUGGGUGUGGUGU [hsa-miR-4701-3p] | 13.3% | -25% | 47.1%
12 | AUGGUACCCUGGCAUACUGAGU [hsa-miR-1263] | 24.8% | -22.2% | 49.6%
13 | AUGGUCACCUCCGGGACU [hsa-miR-5587-5p] | 60.6% | 41.6% | -15.8%
14 | AUGGUCUCCUGUUCUCUGCAG [hsa-miR-6843-3p] | 31.7% | 7.69% | 10.8%
15 | AUGGUUCCGUCAAGCACCAUGG [hsa-miR-218-1-3p] | 51% | 4.75% | 11.8%
16 | AUGUAGGGCUAAAAGCCAUGGG [hsa-miR-135b-3p] | 14.3% | 10.5% | 6.54%
17 | AUGUAUAAAUGUAUACACAC [hsa-miR-568] | 178% | 26.1% | -26.3%
18 | AUGUAUGUGUGCAUGUGCAUG [hsa-miR-297] | 116% | 34.4% | -26.3%
19 | AUGUCCAUAUUAUGGGUUAGU [hsa-miR-3912-5p] | 83.8% | 83.1% | -28.3%
20 | AUGUCCCACCCCCACUCCUGU [hsa-miR-4433b-5p] | 28.3% | -37.3% | 55.5%

Row | Sequence | percent viability (MCF10A [1]) | 5+ nucleoli phenotype percent effect (MCF10A [2]) | one-nucleolus phenotype percent effect (MCF10A [3])
21 | AUGUGAUUGACGGCUGACUCCA [hsa-miR-8070] | 23% | -27.8% | 26.5%
22 | AUGUGCCUGAGGGAGUAAGACA [hsa-miR-550b-2-5p] | 49.7% | -13.6% | 9.16%
23 | AUGUGGGCUCAGGCUCA [hsa-miR-4296] | 26.9% | -35.4% | 44.2%
24 | AUUAAGGACAUUUGUGAUUGAU [hsa-miR-4477b] | 37.8% | 7% | -4.92%
25 | AUUAGGUAGUGGCAGUGGAAC [hsa-miR-6509-5p] | 55.7% | 6.73% | -17.9%
26 | AUUCCUAGAAAUUGUUCAUA [hsa-miR-384] | 107% | 23.8% | -8.73%
27 | AUUCUAAGUGCCUUGGCC [hsa-miR-4263] | 37.3% | -1.39% | -0.791%
28 | AUUCUAAUUUCUCCACGUCUUU [hsa-miR-576-5p] | 100% | 28.2% | 1.07%
29 | AUUCUCUCUGGAUCCCAUGGAU [hsa-miR-4768-5p] | 22.6% | -2.49% | -12.2%
30 | AUUCUGCAUUUUUAGCAAGUUC [hsa-miR-544a] | 26.6% | -31.2% | 5.39%
31 | AUUCUUCCUGCCCUGGCUCCAU [hsa-miR-6875-3p] | 29.5% | -0.842% | -4.69%
32 | AUUGAAACCUCUAAGAGUGGA [hsa-miR-510-3p] | 41.7% | 8.91% | -2.4%
33 | AUUGACACCUCUGUGAGUGGA [hsa-miR-514b-3p] | 32.6% | -12.5% | 16.1%
34 | AUUGACACUUCUGUGAGUAGA [hsa-miR-514a-3p] | 56.9% | -5.72% | 13.2%
35 | AUUGCCUAACAUGUGCCAGAA [hsa-miR-4774-3p] | 26.6% | -31.6% | 13.7%
36 | AUUGCCUCUGUUCUAACACAAG [hsa-miR-3152-5p] | 129% | 38.3% | -11.4%
37 | AUUGGACUGCUGAUGGCCCGU [hsa-miR-4529-3p] | 48.3% | -12.1% | 19.5%
38 | AUUGGGAACAUUUUGCAUGUAU [hsa-miR-450a-1-3p] | 95% | 24.1% | -29.7%
39 | AUUGGGGACAUUUUGCAUUCAU [hsa-miR-450a-3p] | 31.6 ± 3.4% | -17.5 ± 0.61% | 7.56 ± 4.4%
40 | AUUGUAGAACCUAAGAUUGGCC [hsa-miR-3674] | 27.9% | -29.6% | 40.2%

Row | Sequence | percent viability (MCF10A [1]) | 5+ nucleoli phenotype percent effect (MCF10A [2]) | one-nucleolus phenotype percent effect (MCF10A [3])
41 | AUUGUCCCUCUCCCUUCCCAG [hsa-miR-4646-3p] | 50.3% | -1.47% | -0.307%
42 | AUUGUCCUUGCUGUUUGGAGAU [hsa-miR-2355-3p] | 55.4% | -3.53% | -8.98%
43 | AUUGUUCUGUCUUUCUCCCAG [hsa-miR-6739-3p] | 27.3% | -25.7% | 7.82%
44 | AUUUCCCUGCCAUUCCCUUGGC [hsa-miR-4446-5p] | 18.4% | -36% | 28.2%
45 | AUUUGUGCUUGGCUCUGUCAC [hsa-miR-2113] | 98.6% | 9.63% | -12.4%
46 | CAAAAACCACAGUUUCUUUUGC [hsa-miR-548d-3p] | 65.5% | -4.46% | -0.45%
47 | CAAAAACCAUAGUUACUUUUGC [hsa-miR-548bb-3p] | 103% | 40.6% | -26%
48 | CAAAAACCGCAAUUACUUUUGCA [hsa-miR-548h-3p] | 52% | -11% | -6.67%
49 | CAAAAACCGCAAUUACUUUUGCA [hsa-miR-548z] | 36% | -14.9% | 0.602%
50 | CAAAAACCGGCAAUUACUUUUG [hsa-miR-548ac] | 72.6% | 8.34% | -15.1%
51 | CAAAAACUGCAAUUACUUUCA [hsa-miR-548ae] | 153% | 38.6% | -34.4%
52 | CAAAAACUGCAAUUACUUUUGC [hsa-miR-548aq-3p] | 115% | 13.8% | -26.6%
53 | CAAAAACUGCAGUUACUUUUGC [hsa-miR-548ah-3p] | 144% | 63.6% | -24.8%
54 | CAAAAACUGCAGUUACUUUUGU [hsa-miR-548am-3p] | 96% | 42.5% | -23.3%
55 | CAAAAACUGCAUUACUUUUGC [hsa-miR-548j-3p] | 118% | 32.5% | -29.2%
56 | CAAAAAUCUCAAUUACUUUUGC [hsa-miR-548c-3p] | 84.4% | 42.3% | -9.26%
57 | CAAAACCGCAGUAACUUUUGU [hsa-miR-548at-3p] | 33% | -23.4% | 37.5%
58 | CAAAACCGCGAUUACUCUUGCA [hsa-miR-548ay-3p] | 25.8% | -63.9% | 52%
59 | CAAAACGUGAGGCGCUGCUAU [hsa-miR-424-3p] | 74.1% | -16.6% | -5.82%
